According to patent US5792641:

What was measured:
[1] = target: Humicola insolens 43 kD endoglucanase (Humicola insolens)
[2] = target: Variant I: V221S+N222S+Q223T (Humicola insolens)
[3] = target: Variant II: V240P+Q241P (Humicola insolens)

Residual Activity, % DAA (25° C., 5d) after storage in liquid detergent with Savinase protease [1]: 63%
Residual Activity, % DAA (25° C., 5d) after storage in liquid detergent with Savinase protease [2]: 83%
Residual Activity, % DAA (25° C., 5d) after storage in liquid detergent with Savinase protease [3]: 81%
Substance: Savinase® protease (from UniProt P29600) (enzyme)
